First the molecules themselves.
T1: recombinant human CLL1 extracellular domain, His-tagged (CLL1-His protein) (human, UniProt Q5QGZ9 65-265)
T1 construct: ECD made by transient expression in HEK293 (293-F) cells and purified by IMAC; also called recombinant human CLL1 protein; ECD of CLL1; not shown: His tag (protein called CLL1-His, purified by IMAC)
T1 sequence: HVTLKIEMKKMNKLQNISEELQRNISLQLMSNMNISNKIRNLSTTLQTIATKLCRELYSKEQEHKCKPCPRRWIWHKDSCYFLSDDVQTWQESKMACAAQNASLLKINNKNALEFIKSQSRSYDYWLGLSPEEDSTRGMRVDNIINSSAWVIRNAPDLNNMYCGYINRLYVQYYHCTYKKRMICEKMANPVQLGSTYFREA

B1: AS141330 (antibody, V domains shown)
VH: QVKLEQPGGSLRLSCAASGFTFSDYDMTWVRQAPGKGLEWISTITGGGESTYYRDSVKGRATISRDNAKNTLYLQLNSLKTEDTAMYYCARGGGWEYYGMNYWGKGTLVTISS
VL: SSELTQPSAVSVSLGETARITCQGGKVGSNYASWYQQKPGQAPVLVIYGDDSRPSGIPERFSGSSSGGTATLTISGAQAEDEADYYCQSYDSSGYNAVFGGGTHLTVL
notes: Called 'IgG1', from a camel phage library, expressed in IPTG-induced supernatant with a C-terminal His-tag; also called anti-CLL1 IgG1
B2: AS138993 (antibody, V domains shown)
VH: QVQLQESGGDLVQPGGSLRLSCAASGFTFSSYDMTWVRQAPGKGLEWVSTINSGGGVTYYTDSVKGRFTISRDNAKNTLYLQMNSLKPEDTAMYYCAADLSWYHALDAWGQGTLVTVSS
VL: SSELTQPAAVSVSLGETARITCQGGNFGSYYASWYQQKPGQAPVLVIHANDNRPSGIPERFSGSSSGGTVTLTISGAQAEDEADYYCQSYDSSANAVVFGGGTHLTVL
notes: as for B1
B3: AS141297 (antibody, V domains shown)
VH: QVQLVQSGGGLVQPGGSLRLSCAASGFTFSSYGMIWVRQAPGKGLEWVSAANSGGGTTYYADSVKGRFTISRDNAKNTLYLQLNSLKTEDTAMYYCVKDLYIDGGTWSGLGLYLEVWGQGTLVTVSS
VL: SYELTQPSAVSVSLGETARITCQGGDFGTYYASWYQQKPGQAPVLVIYEDSERPSGIPERFSGSSSGGTATLTISGAQAEDEADYYCQSADSSVNVVFGGGTHLTVL
notes: as for B1
B4: AS141567 (antibody, V domains shown)
VH: QVQLVQSGGGLVQPGGSLRLSCAASGFTFSSYAMSWVRQAPGKGLEWVSAINSGDSSTYYVDSVKGRFTISRDNAKNTLYLQLNSLKTEDTAMYYCAKDRIPGPYSDGGGFLGIVFGYWGQGTQVTISS
VL: SSELTQPSAVSVSLGQTARITCQGGNFGKYYAHWYQQKPGQAPVLVIYEDSERPSGIPERFSGSSSGDTATLTISGAQAEDEGDYYCHSAESSAAVFGGGTHLTVL
notes: as for B1
B5: AS138628 (antibody, V domains shown)
VH: QVQLVQSGGGLVQPGGSLRLSCASSGFTFSSYTMSWVRQAPGKGLEWVSGFNSYGSTYYADSVKGRFTISRDNAKNTLYLQLNSLKTEDTAMYYCARGLVDFDYWGQGTQVTVSS
VL: QSVLTQPSSVSGTPGQTVTISCTGTSNDVGGYNYVSWYQQLPGTAPKLLIYQVNKRASGIPDRFSGSKSGNTASMTISGLQSADEADYYCASYRSTGNAVFGGGTHLTVL
notes: as for B1
B6: AS138943 (antibody, V domains shown)
VH: AVQLVESGGGLVQPGGSLRLSCTASGFNFGLYAMSWVRQAPGKGLEWVSGINGGGGLTYYPDSMKGRFTISRDVAKNTLYLELNSLKIEDTAMYYCAKDPDMWTAFPNALDAWGQGTLVTVSS
VL: SYELTQPSAVSVSLGETARITCQGGNIGINYANWYQQKPGQAPVLVIYGDDRRPSGIPERFSGSISGGTATLTISGAQAEDEADYYCQSADSSPYVVFGGGTHLTVL
notes: as for B1
B7: AS138658 (antibody, V domains shown)
VH: QVQLVQSGGSLRLSCAASGFTFSSYDMSWVRQAPGKGLEWVSTINSGGETTYYRDSVKGRFTISRDNAKNTLYLQLNSLKTEDTAMYYCAKGGGWEYYGMDYWGKGTLVTISS
VL: SYELTQPSAVSVSLGQTARITCQGGNLGSSYAYWYQQKPGQAPVLVIYADDSRPSGIPERFSGSSSGGTATLTISGAQAEDEADYYCQSYDSSSYDIVFGGGTHLTVL
notes: as for B1
B8: AS141286 (antibody, V domains shown)
VH: QVQLVQSGGGLVQPGGSLRLSCAASRFPDGSYYMSWVRQGPGKGLEWVSSIYTGGDSTYYADSVKGRFTISKDNAKNALYLQMNSLKPEDTAVYYCAADPGGRYGPHEYNYWGQGTQVTVSS
VL: SSELTQPSAVSVSLGETARITCQGGNIGSNYANWYQQKPGQAPVLVIYGDDSRPSGIPERFSGSSSGGTATLTISGAQAEDEADYYCQSADSSGYNAVFGGGTHLTVL
notes: as for B1
B9: AS141553 (antibody, V domains shown)
VH: QVQLVESGGGLVQPGGSLRLSCAASGFTFSSVDMTWVRQAPGKGLEWVSTINTGSGSTYYADSVKGRFTISRDNAKNTLYLQMNSLKTEDTAVYYCATDLAGGGAWFTAPFHYWGQGTQVTISS
VL: SYELTQPSAVSVSLGETARITCQGGNVGYYYASWYQQKPGQAPVLVIYEDSERPSGIPERFSGSSSGGTATLTISGAQAEDEADYYCQSADSSGYNAAVFGGGTHLTVL
notes: as for B1
B10: AS141701 (antibody, V domains shown)
VH: QVQLVQSGGGLVQPGGSLRLSCAASGFTFSVYAMSWVRQAPGKGLEWVSAIKAANSDGDNTYYVDSVKGRFTISRDNAKNTLYLQLNSLKTEDTAIYYCAKAMYECSSGSWCPLGDALDAWGQGTLVTVSS
VL: SSELTQPSAVSVSLGETARITCQGGNVRSSYVSWYQQKPGQAPVLVIYEDSERPSGIPERFSGSSSGGTATLTISGAQAEDEADYYCQSGDNSAYSAAVFGGGTHLTVL
notes: as for B1
B11: AS141522 (antibody, V domains shown)
VH: QVQLVQSGGGLVQPGGSLRLSCAASGFTFGDYIMIWVRQAPGKGLEWVSAINSGGDSTYYADSVKGRFTISRDNAKNTLYLQLNSLKTQDTAIYYCAKDREAYYGSFYGGSGFDYWGQGTQVTISS
VL: SSELTQPSAVSVSLGETARITCQGGNVGSSYASWYQQKPGQAPVLVIYEDSERPSGIPERFSGSSSGGTATLTISRAQAEDEADYYCQSADRSGYNAVFGGGTHLTVL
notes: as for B1
B12: AS141641 (antibody, V domains shown)
VH: AVQLVESGGGLVQPGGSLRLSCAASGFTFSGYPMSWVRQAPGKALEWVSTINNGGGSTYYADSVKGRFTISRDNAKNTLYLQLNSLKTEDTAMYYCAKRHIPSSYCSDGYCYAAGEDYGMDYWGKGTLVTISS
VL: SSELTQPSAVSVSLGETARITCQGGNVGSSYASWYQQKPGQAPVLVIYEDSERPSGIPERFSGSSSGGTATLTISGAQAEDEADYYCQSADSSGYNAVFGGGTHLTVL
notes: as for B1
B13: AS141819 (antibody, V domains shown)
VH: EVQLVQSGGGLVQPGGSLRLSCATSGFTFSNNWMHWVRQAPGKGLEWVSSINTGDGSTSSADSVKGRFTISRDNTKNILYLQMNSLKSEDTALYYCAKELDYELGKGPHEYNYWGQGTQVTVSS
VL: SYELTQPSAVSVSLGETARITCQGGNIGSNYANWYQQKPDQAPVLVIYGDDSRPSGIPERFSGSSSGGTATLTISGAQAEDETDYYCQSADSSGYKAVFGGGTHLTVL
notes: as for B1

One test deals with T1, recombinant human CLL1 extracellular …. Put plainly: SPR (BIACORE T200), supernatants on recombinant human CLL1. On the procedure:
(§1) The unique clones were grown in 2YT medium and induced by IPTG for IgG1 expression in the supernatant. The supernatants of unique binders were analyzed for their ability to bind to a CLL1-expressing HEK293/huCLL1 cell line and cancer cell line AMLL193 using a FACS assay. Affinities of selected binders in supernatants to recombinant human and cynomolgus monkey CLL1 proteins were determined by surface plasmon resonance (SPR) on a BIACORE® T200 instrument. The dissociation phase was used to calculate the kd values for each IgG1.
As to B1, the binding result is listed as “binds”.

Another test shares this target. Nature of the test: SPR (BIACORE T200), IgG1 on recombinant human CLL1; column KD, unit inferred. On the procedure: as §1
As for B2, the Kd worked out at 13 nM.

With B3, the Kd worked out at 0.54 nM.

Take B4: the Kd worked out at 2.3 nM.

As for B5, the Kd came to 43 nM.

Consider B6, for which the Kd came out at 39 nM.

Take B7: the Kd worked out at 21 nM.

In the case of B8, the Kd stood at 1.2 nM.

As for B9, the Kd is 3.5 nM.

As for B10, the Kd was 2.8 nM.

With B11, the Kd was found to be 0.37 nM.

As for B12, the Kd amounted to 0.28 nM.

For the molecule B13, the Kd was found to be 11 nM.
